The target of test [1] is T1, human LAG-3 on transfected cells (human, UniProt P18627 23-525).
T1 construct: whole, on cells; Flp-In-293 or CHO-K1 cells transfected with full length human LAG-3; also called cell surface human LAG-3
T1 sequence (looked up): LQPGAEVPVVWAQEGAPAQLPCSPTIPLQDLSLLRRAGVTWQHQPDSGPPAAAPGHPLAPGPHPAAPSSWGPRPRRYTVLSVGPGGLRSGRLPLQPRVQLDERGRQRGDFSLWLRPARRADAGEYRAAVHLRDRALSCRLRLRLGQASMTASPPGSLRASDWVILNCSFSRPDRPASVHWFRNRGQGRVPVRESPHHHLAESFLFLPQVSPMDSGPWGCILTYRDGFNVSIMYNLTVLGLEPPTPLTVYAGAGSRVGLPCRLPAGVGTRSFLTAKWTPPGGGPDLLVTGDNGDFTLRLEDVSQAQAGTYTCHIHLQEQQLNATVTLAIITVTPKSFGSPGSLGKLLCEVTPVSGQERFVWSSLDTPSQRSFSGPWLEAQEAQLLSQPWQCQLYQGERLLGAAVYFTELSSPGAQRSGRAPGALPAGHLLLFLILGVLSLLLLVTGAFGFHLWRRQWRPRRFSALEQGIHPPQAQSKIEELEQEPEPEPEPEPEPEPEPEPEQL
Kind of test: FACS affinity on transfected cells.

The target in test [2] is T2, cynomolgus LAG-3 on transfected cells (cynomolgus monkey).
T2 construct: whole, on cells; 293F cells transfected with cynomolgus LAG-3; also called cell surface cynomolgus LAG-3; monkey LAG-3
Description: FACS affinity on transfected cells.

Test [3] concerns the target T3, human LAG-3 protein (SPR analyte) (human, UniProt P18627 23-450).
T3 construct: extracellular domain
T3 sequence (looked up): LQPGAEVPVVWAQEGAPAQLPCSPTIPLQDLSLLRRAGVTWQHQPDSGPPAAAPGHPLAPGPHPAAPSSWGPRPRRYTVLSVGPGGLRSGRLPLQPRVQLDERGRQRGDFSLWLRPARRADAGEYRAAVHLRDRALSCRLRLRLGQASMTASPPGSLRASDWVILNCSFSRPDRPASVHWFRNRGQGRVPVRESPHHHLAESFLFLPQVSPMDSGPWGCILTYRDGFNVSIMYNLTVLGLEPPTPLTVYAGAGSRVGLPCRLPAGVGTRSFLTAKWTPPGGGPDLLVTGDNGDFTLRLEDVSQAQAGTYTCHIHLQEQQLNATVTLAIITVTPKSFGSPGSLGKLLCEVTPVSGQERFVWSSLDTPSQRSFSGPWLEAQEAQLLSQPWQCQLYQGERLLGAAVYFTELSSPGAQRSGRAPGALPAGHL
Kind of test: SPR Biacore 8K, Ab as ligand, LAG-3 as analyte. (SPR reads the build-up and loss of mass on a sensor chip optically.)

The target in test [4] is T4, mouse LAG-3 protein (SPR analyte) (mouse, UniProt Q61790 24-442).
T4 construct: extracellular domain
T4 sequence (looked up): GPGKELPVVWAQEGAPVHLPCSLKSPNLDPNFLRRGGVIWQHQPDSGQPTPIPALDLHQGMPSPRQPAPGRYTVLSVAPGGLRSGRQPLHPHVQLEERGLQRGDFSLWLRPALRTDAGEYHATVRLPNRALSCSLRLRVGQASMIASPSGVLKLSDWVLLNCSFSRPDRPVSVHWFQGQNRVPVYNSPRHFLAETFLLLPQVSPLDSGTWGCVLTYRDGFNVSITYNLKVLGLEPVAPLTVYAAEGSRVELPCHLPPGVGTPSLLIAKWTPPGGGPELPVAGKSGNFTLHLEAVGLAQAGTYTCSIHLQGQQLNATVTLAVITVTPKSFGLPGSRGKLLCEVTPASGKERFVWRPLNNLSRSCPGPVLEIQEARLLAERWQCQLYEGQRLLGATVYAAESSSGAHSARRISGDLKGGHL
Kind of test: SPR Biacore 8K, Ab as ligand, LAG-3 as analyte.

The target of test [5] is T5, mouse Fc (mFc)-tagged human LAG-3 (human, UniProt P18627 23-450).
T5 construct: extracellular domain
T5 sequence (looked up): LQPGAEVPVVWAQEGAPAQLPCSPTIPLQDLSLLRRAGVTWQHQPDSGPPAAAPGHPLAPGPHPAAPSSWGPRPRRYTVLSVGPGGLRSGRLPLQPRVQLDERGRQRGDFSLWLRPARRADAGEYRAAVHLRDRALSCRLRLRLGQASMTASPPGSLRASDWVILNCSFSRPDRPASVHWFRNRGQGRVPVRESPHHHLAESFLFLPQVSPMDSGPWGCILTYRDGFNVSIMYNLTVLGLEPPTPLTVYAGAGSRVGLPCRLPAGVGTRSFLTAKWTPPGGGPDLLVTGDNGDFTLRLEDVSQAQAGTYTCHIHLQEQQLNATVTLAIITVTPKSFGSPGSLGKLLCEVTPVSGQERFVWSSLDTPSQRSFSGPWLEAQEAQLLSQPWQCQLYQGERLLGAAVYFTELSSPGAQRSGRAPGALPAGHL
Description: ELISA blocking: antibody pre-mixed with mFc-tagged human LAG-3, added to plates coated with human LSECtin (blocked ligand); detection goat anti-mouse IgG Fc-HRP. How it is done: (§1) 96-well plates were coated with human LSECtin or Galectin-3 at 0.5 μg/ml overnight at 4° C., respectively. […] After blocking and washing, the mixture was transferred to the plates and incubated at room temperature for 1 h. The plates were then washed and subsequently incubated with the secondary antibody goat-anti Mouse IgG Fc-HRP for 1 h. After washing, TMB substrate was added and the color reaction was stopped by 2M HCl. The absorbance at 450 nm was read using a microplate reader.
Background: In an ELISA, binding on a coated surface is turned into a signal by an enzyme label.

Test [6] has as its target T5, mouse Fc (mFc)-tagged human LAG-3. Description: ELISA blocking: antibody pre-mixed with mFc-tagged human LAG-3, added to plates coated with human Galectin-3 (blocked ligand); detection goat anti-mouse IgG Fc-HRP. How it is done:
as §1

The target is the same in test [7]. Kind of test: FACS blocking: antibody pre-mixed with mFc-tagged human LAG-3; blocked ligand: cell surface human MHC-II (paragraph 254 says 'on A20 cells' for this figure); the column head on the sheet reads 'EC50 (nM)', the text calls the value IC50. How it is done: The mixture was transferred into the 96-well plates seeded with Raji cells. Goat anti-mouse IgG Fc-PE antibody was used to detect the binding of LAG-3 protein to Raji cells. The mean fluorescence intensity (MFI) was evaluated by flow cytometry and analyzed by FlowJo.

The record followed here is US20220169722A1 (WUXI BIOLOGICS IRELAND, published 2022).

B1: W3396-R2-1 (Fc fusion)
VHH: QVQLVESGGGVVQPGGSLRLSCAASGLTLSQYTMGWFRQAPGKERELVAAIHWTSSVTDYADSVYGRFTISRDDSKNTGYLQMNSLRAEDTAVYYCAATWYYTHRGSFDYWGQGTLVTVSS
For B1, the Bmax in test [1] is 54 pM; in test [2], 380 pM. In addition, the Kd – broadly, the constant that tells how readily two partners part at equilibrium – in test [1] was determined as 0.46 nM; in test [2], 6.3 nM; in test [3] it was 0.183 nM; in test [4] it was 0.00227 nM. The koff (in general, the rate constant with which the complex falls apart) in test [3] turned out to be 2.73e-05 s⁻¹; in test [4], 2.31e-06 s⁻¹. Further, the kon (as a rule, a measure of how fast the partners come together) in test [3] was determined as 149000 M⁻¹ s⁻¹; in test [4] it was 1.02e+06 M⁻¹ s⁻¹. Besides, the IC50 – broadly, the concentration that inhibits the measured activity by half – in test [5] worked out at 1.81 nM; in test [6], 1.86 nM; in test [7], 1.78 nM.
